The values below come from patent US9079867B2, “Polyazamacrocyclic compound, and a production method and a biomedical use therefor” (KYUNGPOOK NATIONAL UNIVERSITY INDUSTRY-ACADEMIC COOPERATION …, priority 2010, dated 2015).

The structures appear in SMILES notation.

Data set [1] can be described thus: Cyclic voltammetry (electrochemical experiment). Format: physicochemical. The settings on record: irreversible (irrev); 2 mM, 100 mV/s, 0.1 M sodium acetate pH 7.0, glassy carbon electrode. As for the experimental part:
Cyclic voltammetry was carried out by using biological model SP-150 having a 3-electrode structure. The working electrode was made of glassy carbon (diameter=3 mm), the reference electrode Ag/AgCl (saturated KCl), and the counter electrode Pt wire. A sample (2 mM) of compound (30) was operated at a scanning speed of 100 mV/s in a 0.1 M aqueous sodium acetate solution adjusted to pH 7.0 with glacial acetic acid. From the solution, oxygen was removed by bubbling Ar for 30 minutes. During the measurement, the system was maintained under Ar atmosphere.

Another data set in a line: in vivo. The settings on record: female, nude, mouse, iv, 10 uCi, total radioactivity. Also on record: species or system female nude mice. As for the experimental part:
Compound ^64Cu-TE2A-c(RGDyK) (38) (10 μCi) in PBS (120 μl) was injected to the tails of female nude mice to which U87MG tumor had been transplanted. Two groups were examined at two time points [n=4 per group at 1 hr and 4 hr post injection (pi)]. The subject animals were sacrificed, and the relevant tissues and organs were removed and weighed. A dosimetric procedure was carried out by using a gamma-counter. The calculations were performed by comparing with a reference value of which the percentage of injected amount per gram was known.

On to `O=C([O-])CN1CCCNCCN(CC(=O)[O-])CCCNCC1.[Cu+2]` [Cu-TE2A], for which the “Ered (V) for Ag/AgCl” value in data set [1] is reported as −1.05 (irrev) V.
In general, tissue uptake refers to the percentage of the injected dose found per gram of tissue. Take `N=C(N)NCCC[C@@H]1NC(=O)[C@H](CCCCNC(=S)Nc2ccc(CCN3CCCN(CC(=O)O)CCNCCCN(CC(=O)O)CC3)cc2)NC(=O)[C@@H](Cc2ccc(O)cc2)NC(=O)[C@H](CC(=O)O)NC(=O)CNC1=O` [^64Cu-TE2A-c(RGDyK), metal not drawn]: the tissue uptake at 1 h is 0.55 ± 0.18 %ID/g in “in vivo” (% ID/g Blood); 0.66 ± 0.23 %ID/g in “in vivo” (% ID/g Bone); 1.28 ± 0.55 %ID/g in the data set “in vivo” (% ID/g Fat); 2.14 ± 0.53 %ID/g in “in vivo” (% ID/g Intestine); 3.47 ± 0.61 %ID/g in the data set “in vivo” (% ID/g Kidney); 5.45 ± 1.14 %ID/g in the data set “in vivo” (% ID/g Liver). Further, the tissue uptake at 1 h in “in vivo” (% ID/g Lung) is 1.46 ± 0.34 %ID/g; in “in vivo” (% ID/g Muscle), 0.49 ± 0.3 %ID/g; in the data set “in vivo” (% ID/g Spleen), 1.17 ± 0.46 %ID/g; in the data set “in vivo” (% ID/g Stomach), 1.78 ± 0.55 %ID/g; in the data set “in vivo” (% ID/g Tumor 1) it was 2.98 ± 0.39 %ID/g; in “in vivo” (% ID/g Tumor 2), 3.49 ± 1.67 %ID/g. The tissue uptake at 4 h was found to be 0.43 ± 0.09 %ID/g in the data set “in vivo” (% ID/g Blood); 0.41 ± 0.06 %ID/g in “in vivo” (% ID/g Bone); 1.15 ± 1.08 %ID/g in the data set “in vivo” (% ID/g Fat); 2.17 ± 0.62 %ID/g in the data set “in vivo” (% ID/g Intestine); 2.71 ± 0.45 %ID/g in “in vivo” (% ID/g Kidney); 4.45 ± 0.65 %ID/g in the data set “in vivo” (% ID/g Liver). Moreover, the tissue uptake at 4 h amounted to 1.14 ± 0.17 %ID/g in the data set “in vivo” (% ID/g Lung); 0.24 ± 0.11 %ID/g in the data set “in vivo” (% ID/g Muscle); 1.04 ± 0.46 %ID/g in the data set “in vivo” (% ID/g Spleen); 1.03 ± 0.39 %ID/g in the data set “in vivo” (% ID/g Stomach); 3.01 ± 1 %ID/g in the data set “in vivo” (% ID/g Tumor 1); 3.32 ± 0.49 %ID/g in “in vivo” (% ID/g Tumor 2).
